The record followed here is paper PMC12043510.

For test [1], the target named is MBP–P2^1–786 (rice dwarf virus (RDV)). Nature of the test: MST.
For test [2], the target named is GST–CP (rice stripe virus (RSV)). Nature of the test: MST.

By Kd is commonly meant the concentration at which binding is half-saturated. A higher Kd goes with a looser complex. On to “MBP–RBRL (from UniProt Q75LV6 1-540) (enzyme)”, for which the equilibrium dissociation constant (Kd) in test [1] was 183 nM; in test [2], 5.28 nM.
